Laboratory results taken from the supplement of paper PMC11246515.
± gives the standard deviation of the averaged measurements.

Assay: total protein half-life in vivo (active degradation + dilution); higher = more stable protein
[1] = E. coli NCM3722 delta-clpP, growth: N-lim chemostat, doubling time 6 h
[2] = E. coli NCM3722 delta-hslV, growth: N-lim chemostat, doubling time 6 h
[3] = E. coli NCM3722 delta-lon, growth: N-lim chemostat, doubling time 6 h
[4] = E. coli NCM3722 delta-smpB, growth: N-lim chemostat, doubling time 6 h
[5] = wild type E. coli NCM3722, growth: C-lim chemostat, doubling time 12 h
[6] = wild type E. coli NCM3722, growth: N-lim chemostat, doubling time 6 h
[7] = wild type E. coli NCM3722, growth: N-lim chemostat, doubling time 12 h
[8] = wild type E. coli NCM3722, growth: P-lim chemostat, doubling time 6 h
[9] = wild type E. coli NCM3722, growth: P-lim chemostat, doubling time 12 h
[10] = E. coli NCM3722 delta-clpP delta-lon delta-hslV, growth: N-lim chemostat, doubling time 6 h
[11] = wild type E. coli NCM3722, growth: C-lim chemostat, doubling time 3 h
[12] = wild type E. coli NCM3722, growth: C-lim chemostat, doubling time 6 h

| Sequence | total protein half-life in vivo [1] [h] | total protein half-life in vivo [2] [h] | total protein half-life in vivo [3] [h] | total protein half-life in vivo [4] [h] | total protein half-life in vivo [5] [h] | total protein half-life in vivo [6] [h] | total protein half-life in vivo [7] [h] | total protein half-life in vivo [8] [h] | total protein half-life in vivo [9] [h] | total protein half-life in vivo [10] [h] | total protein half-life in vivo [11] [h] | total protein half-life in vivo [12] [h] |
| --- | --- | --- | --- | --- | --- | --- | --- | --- | --- | --- | --- | --- |
| MGIKQHNGNTKADRLAELKIRSPSIQLIKFGAIGLNAIIFSPLLIAADTGSQYGTNITINDGDRITGDTADPSGNLYGVMTPAGNTPGNINLGNDVTVNVNDASGYAKGIIIQGKNSSLTANRLTVDVVGQTSAIGINLIGDYTHADLGTGSTIKSNDDGIIIGHSSTLTATQFTIENSNGIGLTINDYGTSVDLGSGSKITTDGSTGVYIGGLNGNNANGAARFTATDLTIDVQGYSAMGINVQKNSVVDLGTNSTIKTNGDNAHGLWSFGQVSANALTVDVTGAAANGVEVRGGTTTIGADSHISSAQGGGLVTSGSDAIINFTGTAAQRNSIFSGGSYGASAQTATAVVNMQNTDITVDRNGSLALGLWALSGGRITGDSLAITGAAGARGIYAMTNSQIDLTSDLVIDMSTPDQMAIATQHDDGYAASRINASGRMLINGSVLSKGGLINLDMHPGSVWTGSSLSDNVNGGKLDVAMNNSVWNVTSNSNLDTLALSHSTVDFASHGSTAGTFATLNVENLSGNSTFIMRADVVGEGNGVNNKGDLLNISGSSAGNHVLAIRNQGSEATTGNEVLTVVKTTDGAASFSASSQVELGGYLYDVRKNGTNWELYASGTVPEPTPNPEPTPAPAQPPIVNPDPTPEPAPTPKPTTTADAGGNYLNVGYLLNYVENRTLMQRMGDLRNQSKDGNIWLRSYGGSLDSFASGKLSGFDMGYSGIQFGGDKRLSDVMPLYVGLYIGSTHASPDYSGGDGTARSDYMGMYASYMAQNGFYSDLVIKASRQKNSFHVLDSQNNGVNANGTANGMSISLEAGQRFNLSPTGYGFYIEPQTQLTYSHQNEMTMKASNGLNIHLNHYESLLGRASMILGYDITAGNSQLNVYVKTGAIREFSGDTEYLLNNSREKYSFKGNGWNNGVGVSAQYNKQHTFYLEADYTQGNLFDQKQVNGGYRFSF | > 8 | 6.81 ± 1.4 | 5.53 ± 0.71 | 5.18 ± 1 | > 16 | 7.13 | 11.6 ± 0.3 | 4.97 ± 1.4 | 12.5 ± 2.7 | – | – | – |
| MKKIAFGCDHVGFILKHEIVAHLVERGVEVIDKGTWSSERTDYPHYASQVALAVAGGEVDGGILICGTGVGISIAANKFAGIRAVVCSEPYSAQLSRQHNDTNVLAFGSRVVGLELAKMIVDAWLGAQYEGGRHQQRVEAITAIEQRRN | – | 3.77 ± 0.19 | 3.82 ± 0.13 | 3.45 ± 0.1 | 9.29 ± 1.4 | 3.725 ± 0.033 | 5.17 ± 1 | 5.32 ± 0.18 | 10.2 ± 0.91 | 4.69 ± 0.15 | 3.05 ± 0.37 | 5.6 ± 0.41 |
| MNDAVITLNGLEKRFPGMDKPAVAPLDCTIHAGYVTGLVGPDGAGKTTLMRMLAGLLKPDSGSATVIGFDPIKNDGALHAVLGYMPQKFGLYEDLTVMENLNLYADLRSVTGEARKQTFARLLEFTSLGPFTGRLAGKLSGGMKQKLGLACTLVGEPKVLLLDEPGVGVDPISRRELWQMVHELAGEGMLILWSTSYLDEAEQCRDVLLMNEGELLYQGEPKALTQTMAGRSFLMTSPHEGNRKLLQRALKLPQVSDGMIQGKSVRLILKKEATPDDIRHADGMPEININETTPRFEDAFIDLLGGAGTSESPLGAILHTVEGTPGETVIEAKELTKKFGDFAATDHVNFAVKRGEIFGLLGPNGAGKSTTFKMMCGLLVPTSGQALVLGMDLKESSGKARQHLGYMAQKFSLYGNLTVEQNLRFFSGVYGLRGRAQNEKISRMSEAFGLKSIASHATDELPLGFKQRLALACSLMHEPDILFLDEPTSGVDPLTRREFWLHINSMVEKGVTVMVTTHFMDEAEYCDRIGLVYRGKLIASGTPDDLKAQSANDEQPDPTMEQAFIQLIHDWDKEHSNE [P0A9U1] | 6.03 ± 0.77 | 6.28 ± 0.41 | 6.03 ± 0.23 | 5.83 ± 0.5 | 11.8 ± 2.2 | 6.05 ± 0.092 | 12.6 ± 1.7 | 6.15 ± 0.14 | 12.3 ± 0.47 | 5.78 ± 0.23 | 3.32 ± 0.15 | – |
| MATDTLTHATAHAHEHGHHDAGGTKIFGFWIYLMSDCILFSILFATYAVLVNGTAGGPTGKDIFELPFVLVETFLLLFSSITYGMAAIAMYKNNKSQVISWLALTWLFGAGFIGMEIYEFHHLIVNGMGPDRSGFLSAFFALVGTHGLHVTSGLIWMAVLMVQIARRGLTSTNRTRIMCLSLFWHFLDVVWICVFTVVYLMGAM [P0ABJ3] | – | – | – | – | 13.9 | – | – | – | – | – | – | – |
| MTAINRILIVDDEDNVRRMLSTAFALQGFETHCANNGRTALHLFADIHPDVVLMDIRMPEMDGIKALKEMRSHETRTPVILMTAYAEVETAVEALRCGAFDYVIKPFDLDELNLIVQRALQLQSMKKEIRHLHQALSTSWQWGHILTNSPAMMDICKDTAKIALSQASVLISGESGTGKELIARAIHYNSRRAKGPFIKVNCAALPESLLESELFGHEKGAFTGAQTLRQGLFERANEGTLLLDEIGEMPLVLQAKLLRILQEREFERIGGHQTIKVDIRIIAATNRDLQAMVKEGTFREDLFYRLNVIHLILPPLRDRREDISLLANHFLQKFSSENQRDIIDIDPMAMSLLTAWSWPGNIRELSNVIERAVVMNSGPIIFSEDLPPQIRQPVCNAGEVKTAPVGERNLKEEIKRVEKRIIMEVLEQQEGNRTRTALMLGISRRALMYKLQEYGIDPADV | 3.82 | 2.7 | 3.5 | 2.912 ± 0.0036 | 10.6 ± 2.5 | 3.16 | – | 4.99 ± 0.19 | 10.9 ± 1.7 | 5.23 ± 2.1 | 3.09 ± 0.26 | 5.56 ± 0.094 |
| MPVRAQRIQHVMQDTIINFYSTSDDYGDFSNFAAWPIKVDGKTWPTSEHYFQAQKFLDEKYREEIRRVSSPMVAARMGRDRSKPLRKNWESVKEQVMRKALRAKFEQHAELRALLLATAPAKLVEHTENDAYWGDGGHGKGKNRLGYLLMELREQLAIEK | – | 4.25 | – | – | 12.3 | – | – | – | – | – | – | – |
| MTPDELARLTGYSRQTINKWVRKEGWTTSPKPGVQGGKARLVHVNEQVREYIRNAERPEGQGEAPALSGDAPLEVLLVTLAKEMTPVEQKQFTSLLLREGIIGLLQRLGIRDSK [P0AD37] | – | – | – | – | – | – | – | – | – | – | 1.89 | – |
| MKTNIKVFTSTGELTTLGRELGKGGEGAVYDIEEFVDSVAKIYHTPPPALKQDKLAFMAATADAQLLNYVAWPQATLHGGRGGKVIGFMMPKVSGKEPIHMIYSPAHRRQSYPHCAWDFLLYVARNIASSFATVHEHGHVVGDVNQNSFMVGRDSKVVLIDSDSFQINANGTLHLCEVGVSHFTPPELQTLPSFVGFERTENHDNFGLALLIFHVLFGGRHPYSGVPLISDAGNALETDITHFRYAYASDNQRRGLKPPPRSIPLSMLPSDVEAMFQQAFTESGVATGRPTAKAWVAALDSLRQQLKKCIVSAMHVYPAHLTDCPWCALDNQGVIYFIDLGEEVITTGGNFVLAKVWAMVMASVAPPALQLPLPDHFQPTGRPLPLGLLRREYIILLEIALSALSLLLCGLQAEPRYIILVPVLAAIWIIGSLTSKAYKAEVQQRREAFNRAKMDYDHLVRQIQQVGGLEGFIAKRTMLEKMKDEILGLPEEEKRALAALHDTARERQKQKFLEGFFIDVASIPGVGPARKAALRSFGIETAADVTRRGVKQVKGFGDHLTQAVIDWKASCERRFVFRPNEAITPADRQAVMAKMTAKRHRLESALTVGATELQRFRLHAPARTMPLMEPLRQAAEKLAQAQADLSRC | 4.86 | – | – | – | – | – | – | – | – | 4.54 | – | – |
| MSGKPAARQGDMTQYGGSIVQGSAGVRIGAPTGVACSVCPGGVTSGHPVNPLLGAKVLPGETDIALPGPLPFILSRTYSSYRTKTPAPVGSLGPGWKMPADIRLQLRDNTLILSDNGGRSLYFEHLFPGEDGYSRSESLWLVRGGVAKLDEGHRLAALWQALPEELRLSPHRYLATNSPQGPWWLLGWCERVPEADEVLPAPLPPYRVLTGLVDRFGRTQTFHREAAGEFSGEITGVTDGAWRHFRLVLTTQAQRAEEARQQAISGGTEPSAFPDTLPGYTEYGRDNGIRLSAVWLTHDPEYPENLPAAPLVRYGWTPRGELAVVYDRSGKQVRSFTYDDKYRGRMVAHRHTGRPEIRYRYDSDGRVTEQLNPAGLSYTYQYEKDRITITDSLDRREVLHTQGEAGLKRVVKKEHADGSVTQSQFDAVGRLRAQTDAAGRTTEYSPDVVTGLITRITTPDGRASAFYYNHHNQLTSATGPDGLELRREYDELGRLIQETAPDGDITRYRYDNPHSDLPCATEDATGSRKTMTWSRYGQLLSFTDCSGYVTRYDHDRFGQMTAVHREEGLSQYRAYDSRGQLIAVKDTQGHETRYEYNIAGDLTAVIAPDGSRNGTQYDAWGKAVRTTQGGLTRSMEYDAAGRVIRLTSENGSHTTFRYDVLDRLIQETGFDGRTQRYHHDLTGKLIRSEDEGLVTHWHYDEADRLTHRTVKGETAERWQYDERGWLTDISHISEGHRVAVHYRYDEKGRLTGERQTVHHPQTEALLWQHETRHAYNAQGLANRCIPDSLPAVEWLTYGSGYLAGMKLGDTPLVEYTRDRLHRETLRSFGRYELTTAYTPAGQLQSQHLNSLLSDRDYTWNDNGELIRISSPRQTRSYSYSTTGRLTGVHTTAANLDIRIPYATDPAGNRLPDPELHPDSTLSMWPDNRIARDAHYLYRYDRHGRLTEKTDLIPEGVIRTDDERTHRYHYDSQHRLVHYTRTQYEEPLVESRYLYDPLGRRVAKRVWRRERDLTGWMSLSRKPQVTWYGWDGDRLTTIQNDRSRIQTIYQPGSFTPLIRVETATGELAKTQRRSLADALQQSGGEDGGSVVFPPVLVQMLDRLESEILADRVSEESRRWLASCGLTVEQMQNQMDPVYTPARKIHLYHCDHRGLPLALISTEGATAWCAEYDEWGNLLNEENPHQLQQLIRLPGQQYDEESGLYYNRHRYYDPLQGRYITQDPIGLKGGWNLYGYQLNPISDIDPLGLSMWEDAKSGACTNGLCGTLSAMIGPDKFDSIDSTAYDALNKINSQSICEDKEFAGLICKDNSGRYFSTAPNRGERKGSYPFNSPCPNGTEKVSAYHTHGADSHGEYWDEIFSGKDEKIVKSKDNNIKSFYLGTPSGNFKAIDNHGKEITNRKGLPNVCRVHGNM | 5.71 | 6.16 ± 0.29 | – | – | 15.1 | 5.88 | 12.5 ± 0.6 | 4.38 | 13.7 | – | – | 5.99 ± 0.77 |
| MIKWPWKVQESAHQTALPWQEALSIPLLTCLTEQEQSKLVTLAERFLQQKRLVPLQGFELDSLRSCRIALLFCLPVLELGLEWLDGFHEVLIYPAPFVVDDEWEDDIGLVHNQRIVQSGQSWQQGPIVLNWLDIQDSFDASGFNLIIHEVAHKLDTRNGDRASGVPFIPLREVAGWEHDLHAAMNNIQEEIELVGENAASIDAYAASDPAECFAVLSEYFFSAPELFAPRFPSLWQRFCQFYQQDPLQRLHHANDTDSFSATNVH | 3.08 ± 0.31 | 1.36 ± 0.03 | 1.79 ± 0.075 | 1.51 ± 0.037 | 2.19 ± 0.13 | 1.53 | 2.44 ± 0.53 | 1.76 ± 0.39 | 3.29 ± 0.75 | 4.48 ± 0.42 | 1.16 ± 0.016 | 1.87 ± 0.28 |
| MTHKATEILTGKVMQKSVLITGCSSGIGLESALELKRQGFHVLAGCRKPDDVERMNSMGFTGVLIDLDSPESVDRAADEVIALTDNCLYGIFNNAGFGMYGPLSTISRAQMEQQFSANFFGAHQLTMRLLPAMLPHGEGRIVMTSSVMGLISTPGRGAYAASKYALEAWSDALRMELRHSGIKVSLIEPGPIRTRFTDNVNQTQSDKPVENPGIAARFTLGPEAVVDKVRHAFISEKPKMRYPVTLVTWAVMVLKRLLPGRVMDKILQG [P0AFP4] | 6.01 ± 0.54 | 5.32 ± 1.6 | 6.02 ± 0.67 | 5.568 ± 0.03 | 13.6 ± 1.8 | 6.01 ± 0.4 | 11.9 ± 0.34 | 6.027 ± 0.025 | 10.4 ± 1.3 | 6.09 ± 0.25 | 3.07 ± 0.11 | 6.19 ± 0.11 |
